Test results from patent publication US20200325179A1 (EUROPEAN MOLECULAR BIOLOGY LABORATORY, published 2020).
Ends that are not written are not given here.

Tests used:
[1] = target: T1, ADDomer with one cysteine mutation Q476C (synthetic penton base protomer based on …); experiment: non-reducing SDS-PAGE and blot; biotinylated peptide detected with Alexa488 avidin, ADDomer with a specific antibody and a Cy3 secondary antibody; covalent disulfide
T1 construct: Virus-like particle: 12 pentamers of 5 engineered penton base protomers each; also called Cys-ADDomer; Cys modified ADDomer
T1 chain: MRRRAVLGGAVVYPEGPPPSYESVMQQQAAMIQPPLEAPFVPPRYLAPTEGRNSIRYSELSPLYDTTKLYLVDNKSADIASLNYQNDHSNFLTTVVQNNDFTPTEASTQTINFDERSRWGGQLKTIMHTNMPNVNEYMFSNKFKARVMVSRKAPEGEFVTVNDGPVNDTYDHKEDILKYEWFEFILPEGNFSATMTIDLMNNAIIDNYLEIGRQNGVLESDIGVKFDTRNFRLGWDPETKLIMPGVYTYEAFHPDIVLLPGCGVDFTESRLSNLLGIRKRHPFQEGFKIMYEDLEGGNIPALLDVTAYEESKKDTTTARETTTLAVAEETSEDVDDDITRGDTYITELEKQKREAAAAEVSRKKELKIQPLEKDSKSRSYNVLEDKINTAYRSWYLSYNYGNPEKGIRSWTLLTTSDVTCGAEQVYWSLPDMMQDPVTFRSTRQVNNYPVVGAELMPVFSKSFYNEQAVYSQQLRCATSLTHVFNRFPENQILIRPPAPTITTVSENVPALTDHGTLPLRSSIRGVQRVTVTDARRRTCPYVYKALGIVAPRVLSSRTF
Method: (§1) FIG. 14: Covalent coupling of “STICKER” peptide to ADDomer containing targeted cystein mutations. Wild-type ADDomer (wt) and ADDomer with one cysteine mutation (K363C, Q476C or A477C, respectively) were incubated with STICKER peptides (C20 (SEQ ID NO: 77) and C9 (SEQ ID NO: 75), respectively). SDS-PAGE analysis was performed under reducing (+bMeSH) and non-reducing (−bMeSH) conditions and transferred to a PVDF membrane. ADDomer (dark grey) and STICKER peptide (light grey) were visualized by binding of labelled antibody and Avidin binding, respectively, evidencing STICKER binding to cysteine-mutant ADDomer by specific disulfide bond formation (marked by white circle in lower panel)
(§2) To widen the ADDomer potential, a system enabling the addition of extra epitopes at the ADDomer was developed. Single cysteines were inserted at specific locationd of the ADDomer sequence (either K363C or Q476C or A477C). […] Complexes were run on SDS-PAGE and ADDomer was detected by a specific antibody and a secondary antibody labelled with Cy3 while the biotinylated peptide was detected by Alexa488 labeled avidin. When the right Cys-ADDomer/peptide was used, the presence of peptide was detected at the ADDomer band size (circle in FIG. 14). […]

[2] = target: T2, ADDomer with one cysteine mutation A477C (synthetic penton base protomer based on …); experiment: as above
T2 construct: Virus-like particle: 12 pentamers of 5 engineered penton base protomers each; also called Cys-ADDomer; Cys modified ADDomer
T2 chain: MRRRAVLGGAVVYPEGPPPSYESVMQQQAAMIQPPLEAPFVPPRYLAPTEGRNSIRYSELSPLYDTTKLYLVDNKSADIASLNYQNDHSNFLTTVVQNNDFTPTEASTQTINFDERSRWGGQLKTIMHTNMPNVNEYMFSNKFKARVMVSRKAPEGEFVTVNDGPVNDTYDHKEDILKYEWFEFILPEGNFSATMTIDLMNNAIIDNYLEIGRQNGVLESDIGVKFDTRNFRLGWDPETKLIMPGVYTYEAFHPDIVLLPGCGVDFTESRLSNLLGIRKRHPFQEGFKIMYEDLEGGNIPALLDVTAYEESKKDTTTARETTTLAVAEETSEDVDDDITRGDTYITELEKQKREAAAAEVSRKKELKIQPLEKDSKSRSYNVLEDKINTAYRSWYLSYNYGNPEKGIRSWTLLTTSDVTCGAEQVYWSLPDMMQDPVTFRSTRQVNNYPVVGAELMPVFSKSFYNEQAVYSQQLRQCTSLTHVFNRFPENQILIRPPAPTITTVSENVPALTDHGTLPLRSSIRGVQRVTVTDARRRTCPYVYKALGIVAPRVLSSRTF
Method: as §1, §2

Binder: AKRARLSTCFNPVYPYEDES (also: biotinylated (position not given here), Detected by Alexa488 labelled avidin) [STICKER peptide C9 (fibre protein fragment, Cys at position 9)]
- binding result [1]: binds
- binding result [2]: binds
